Data: article PMC10117100

What was measured:
[1] = target: Gluc1-ΔNp73α FL (human) (UniProt O15350); test: split reporter (BiFC, NanoBiT); Gaussia princeps protein complementation assay (GPCA): Gluc1 and Gluc2 N-terminal fusions co-transfected in HEK293T, luminescence of lysates after 48 h as normalized luminescence ratio (NLR); pairs count as interacting if NLR is above 5
[2] = target: Gluc1-ΔN(1 to 433) (human); test: as above
Sequence of Gluc1-ΔN(1 to 433) (human) (O15350 other isoform, or with tags, fused parts or gaps mutant): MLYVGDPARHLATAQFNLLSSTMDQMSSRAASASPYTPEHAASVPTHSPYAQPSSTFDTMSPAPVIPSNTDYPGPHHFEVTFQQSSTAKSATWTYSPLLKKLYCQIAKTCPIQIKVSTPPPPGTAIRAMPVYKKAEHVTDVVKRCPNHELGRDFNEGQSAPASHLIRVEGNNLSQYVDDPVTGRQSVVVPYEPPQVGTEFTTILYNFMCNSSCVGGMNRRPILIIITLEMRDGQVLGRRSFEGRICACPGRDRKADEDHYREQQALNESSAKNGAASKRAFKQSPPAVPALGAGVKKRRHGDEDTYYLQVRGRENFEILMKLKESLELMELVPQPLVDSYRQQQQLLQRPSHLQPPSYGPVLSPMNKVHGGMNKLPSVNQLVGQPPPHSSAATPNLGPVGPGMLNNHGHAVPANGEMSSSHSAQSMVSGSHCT

Sequence of Gluc1-ΔNp73α FL (human) (O15350 other isoform, or with tags, fused parts or gaps mutant): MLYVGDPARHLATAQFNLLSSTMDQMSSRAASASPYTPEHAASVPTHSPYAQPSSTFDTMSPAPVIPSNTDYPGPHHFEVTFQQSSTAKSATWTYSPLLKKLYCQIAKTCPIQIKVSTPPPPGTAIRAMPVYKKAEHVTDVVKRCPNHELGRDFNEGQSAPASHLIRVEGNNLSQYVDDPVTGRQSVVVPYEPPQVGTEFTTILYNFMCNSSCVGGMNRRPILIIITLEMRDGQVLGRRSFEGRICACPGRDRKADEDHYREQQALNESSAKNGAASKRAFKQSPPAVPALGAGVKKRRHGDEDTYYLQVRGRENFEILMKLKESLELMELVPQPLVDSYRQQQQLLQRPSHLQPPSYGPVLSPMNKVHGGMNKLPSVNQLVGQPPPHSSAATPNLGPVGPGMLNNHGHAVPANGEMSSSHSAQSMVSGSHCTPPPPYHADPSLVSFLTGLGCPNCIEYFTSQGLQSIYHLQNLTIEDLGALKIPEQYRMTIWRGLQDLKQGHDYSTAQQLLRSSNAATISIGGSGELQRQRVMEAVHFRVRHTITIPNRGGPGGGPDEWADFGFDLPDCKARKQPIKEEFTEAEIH
Sequence of Gluc2-E2F4 FL (Q16254 whole entry): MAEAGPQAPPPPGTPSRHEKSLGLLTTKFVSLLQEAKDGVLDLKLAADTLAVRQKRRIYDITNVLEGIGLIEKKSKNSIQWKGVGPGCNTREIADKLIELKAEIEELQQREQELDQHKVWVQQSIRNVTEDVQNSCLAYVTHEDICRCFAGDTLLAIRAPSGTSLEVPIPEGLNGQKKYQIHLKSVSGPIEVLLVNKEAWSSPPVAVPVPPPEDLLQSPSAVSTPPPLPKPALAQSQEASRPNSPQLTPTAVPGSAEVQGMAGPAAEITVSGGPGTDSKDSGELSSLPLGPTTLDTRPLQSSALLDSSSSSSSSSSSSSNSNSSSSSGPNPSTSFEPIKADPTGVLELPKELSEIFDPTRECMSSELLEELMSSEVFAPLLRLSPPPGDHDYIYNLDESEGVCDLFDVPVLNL
Sequence of Gluc2-E2F(1 to 336) (Q16254 1-336): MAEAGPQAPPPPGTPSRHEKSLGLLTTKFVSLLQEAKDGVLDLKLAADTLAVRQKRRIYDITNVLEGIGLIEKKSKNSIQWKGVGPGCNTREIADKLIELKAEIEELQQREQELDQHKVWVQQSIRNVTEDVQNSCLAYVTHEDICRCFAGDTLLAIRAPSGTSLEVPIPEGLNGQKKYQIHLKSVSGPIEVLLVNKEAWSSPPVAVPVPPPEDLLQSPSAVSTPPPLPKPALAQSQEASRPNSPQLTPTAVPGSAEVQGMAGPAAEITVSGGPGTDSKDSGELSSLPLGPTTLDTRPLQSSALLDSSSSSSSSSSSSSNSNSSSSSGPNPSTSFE

Substance | NLR normalized to the ΔNp73α-E2F4 FL interaction [1] | normalized luminescence ratio (NLR) [2]
Gluc2-E2F(1 to 336) (from UniProt Q16254 1-336) (domain or fragment) | 60% | –
Gluc2-E2F4 FL (from UniProt Q16254 1-413) (natural protein) | – | > 20
